Laboratory results reported in the DeepSol protein solubility set.

Experiment: soluble on expression in E. coli; label from the status in PepcDB or PDB records

Sequence	soluble on expression in E. coli
MKFFNREKEINEILLILEEEPNNIYFIYGPLNSGKSTLIREVITNRLDKSKYIPFFIDFRTRNILNVDNFIECLFEVDEKSKIDDFREYAKSLADLLVKGSEEISKYYLGMPIKVPKPFFDRIFSKRDKSADVYQYIEYLFAKLNEKGKKPILIFDELQMIREITLNGNRLLLWSLFQFLVALTKVQHLCHVFCLSSDSLFIEYIYGKAELKGGVDYILVDDFDKKTALKFMDFLAKQKNINLTNEDKELIYSYVGGKAKYIYDVIVKLKAVKDLKYILETKLEEERNHLEELLEKVEEDYEGINYDEVLEALKLFKDNYELPKSKIKRKIRIFLIKENILFLNPQKGTLKPQSYLVWNAIKRML	not soluble
MKFIVKLQAEITIKSRPVRKRFTKILESSVKNVLRRIDEQVTTRMNWDNIEVNTKDNSPENRERLVEALKCIPGIPMFLEVQQSEFVDVHDIYEKTLAVHAESIENKTFCVRAKRTGNHDFNSLKVEQYVGGGLNQQVESAKVKLKNPDVTIHLEIKNKDLFIVTQRHKGLGGFPIATQEDVLSLMSGGFDSGVSSYQMIKKGARTHYCFFNLGGSAHEVGVKQISYYLWNKFGASHKVKFFAVDFEPVVAEILENVENSQMGVVLKRMMIRAATKIAERGKIQALVTGESLGQVSSQTLTNLNVINRVTDTLILRPLAAYDKQDIIDIARKIGTEEFSKTIPEYCGVISKKPTVKAVLSKVEEEEGNFDFDVLDKVVSETRVYDIRDIGKEAEEEIHAVDLVENIPENAVVVDIRSPEEEEDKPLELGDVEVKHIPFYKLSTQFGDLDMTKEYLLYCDHGVMSKLQALYLLDNGFKNVKVYRP	not soluble
MKFLNVLIVVEDIEKSKKFYYDVLGLKVICDFGENVVLEGNISLQEKKLWLEFINKSDSEVKFNGNDAELYFEEDNFDTFVERLSTMKDIDYVHLAIEHRWGQRAIRFYDLDGHIIEVGETMSSVCRRFLDSGLSIDEVAKRMDVTVEYIESVLELEHHHHHH	soluble
MKFLRIEDEVIYSKKRYKLKREIDKLFLDEEYFQIEPQLFEEYDEFTTINNKIPEESMVKVVNGKVMVLRADITTSIIKSLVPRWEDGLKLKLFYNSSIYKNKNTVGIKEIRQIGCEYLGEASVEADREVVKLALKILEKYNNNFILEVGSSKYIHGLLEELNLNKNCENQIKNLLYTKNTHELKVYIEELKIKHEVKELLSNILSLQGNLYNVIEKSNKFYCNNKMKQALEELKQVNNLIEECNFLDKARFDLSMITMLDYYEGIMFRGYYPNSYKEILSGGRYDSLTKEYGKEIPAIGFTLSVDELMKYVYK	soluble
MKFSESVPLYKQPLSIPAEQLPQPDLNRNLPLSKYFLMMKTPEIGFQKAEVRDVLLRKVVLNEIEKIPAIWNCKNTYNANKLYPEVAVQVYRRTGTLLHTKMVQMVFKTAKDSLRNRLRDAISRKGLNEVDTEAHLLEWEYYPFVRFYREVSEGWEDRMRKTKQLEKREPAGGVGIVGDDENSMDVEEEPYENPDIIWDDVADPESPTTSMSSTLTSTQGTFTDYHPEEPYHNPEPPLIHPTLEYAAMKTASLQRNQQNKHVMEVRHGSETRTVVVMPTEPPRQQLNAPDFAEEMLQVTYQATRIAREQPERVKLLRKALFDTVLAFDQKEYNCVADLYRDLAEKSSR	not soluble
MKFSVLMSLYIKENPQFLRECFESLVAQTRQADEIVLVFDGVVTPDLEFVVTEFETKLPLKLVKLPQNRGLGKALNEGLLHCDYDWVFRMDTDDICVPDRFEKQVAFIEQHPESIIFGGQIAEFGKNVNDIVAYRNVPTSAQEIIKFTQKRCPFNHMTVAYQKSAVINCGGYEDLQEDYYLWIKLVAQGLYMANLPDILVYARVGNGMVLEHHHHHH	not soluble
MKFTELTVKEFENFVQNPSLESHYFQVKENIATRESDGFQVVLLGVKDDDNRVIAASLFSKIPTMGSYVYYSNRGPVMDYSDLGLVDFYLKELDKYLHQHQCLYVKLDPYWLYQVYDKDINPLTEKNDALVNLFKSHGYDHHGFTTQYDSSSQVRWMGVLDLEGKTPASLRKEFDSQRKRNINKAINYGVKVRFLSKDEFGLFLDLYRETEARTGFASKTDDYFYNFIEHYGDKVLVPLAYIDLNEYIQHLQESLNDKENRRDDMMAKENKTDKQLKKIAELDKQIDHDKKELLQASELRQTDGEILNLASGVYFANAYEVNYFSGGSSEKYNQYMGPYAMHWHMINYCFDNGYDRYNFYGLSGDFTENSEDYGVYRFKRGFNVRIEELIGDFYKPINKVKYWLFNTLDRIRNKLKK	not soluble
MKFVDEASILVVAGDGGNGCVSFRREKYIPKGGPDGGDGGDGGDVWMEADENLNTLIDYRFEKSFRAERGQNGASRDCTGKRGKDVTIKVPVGTRVIDQGTGETMGDMTKHGQRLLVAKGGWHGLGNTRFKSSVNRTPRQKTNGTPGDKRELLLELMLLADVGMLGMPNAGKSTFIRAVSAAKPKVADYPFTTLVPSLGVVRMDNEKSFVVADIPGLIEGAAEGAGLGIRFLKHLERCRVLLHLIDIDPIDGTDPVENARIIISELEKYSQDLATKPRWLVFNKIDLLDKVEAEEKAKAIAEALGWEDKYYLISAASGLGVKDLCWDVMTFIIENPVVQAEEAKQPEKVEFMWDDYHRQQLEEIAEEDDEDWDDDWDEDDEEGVEFIYKR	soluble
MKGEEKMPSFDIVSEVDLQEARNGVDNAVREVESRFDFRGVEATIELNDANKTIKVLSESDFQVNQLLDILRAKLLKRGIEGASLDVPDEFVHSGKTWYVEAKLKQGIESAVQKKIVKLIKDSKLKVQAQIQGEEIRVTGKSRDDLQSVMALVRGGDLGQPFQFKNFRD	not soluble
MKGGIVHSDGSYPKDKFEKINGTWYYFDSSGYMLADRWRKHTDGNWYWFDNSGEMATGWKKIADKWYYFNEEGAMKTGWVKYKDTWYYLDAKEGAMVSNAFIQSADGTGWYYLKPDGTLADRPEFTVEPDGLITVK	soluble
MKGKNNMSRIIVVTSGKGGVGKTTSSAAIASGLALRGKKTAVIDFDIGLRNLDLIMGCERRVVYDFVNVINGEATLNQALIKDKRNENLFILPASQTRDKDALTKDGVQRVLNDLKEMGFDFIICDSPAGIEQGALMALYYADEAIVTTNPEVSSVRDSDRILGILDSKSMRAEQGQAPIKQHLLLTRYNPARVTQGEMLSVQDVEEILHVPLLGVIPESQAVLNASNKGVPVIFDDQSDAGQAYQDTVARLLGEQVEFRFLTEAKKGIFKRLFGG	not soluble
MKGRVVIADDEPITRMDIVEMLLEEGYDIVGEASDGFDAIELCKKHKPDLVLMDVKMPLLNGLKAAEVINQDELAACVVLVTAYSGREFVEEAKKAGAMGYVVKPINEKNLLPTLEVAVSKSKEFNEMKSQVKKAQVQLEDRKQIERAKGILMKKEMLSEEEAYNQIRKLSMSKRCSMGEIAKIITMNQ	not soluble
MKHHHHHHHHGGLVPRGSHGMTKKIVAIWAQDEEGVIGKDNRLPWYLPAELQHFKETTLNHAILMGRVTFDGMGRRLLPKRETLILTRNPEEKIDGVATFHDVQSVLDWYSAQEKNLYIVGGKQIFQAFEPYLDEVIVTHIHARVEGDTYFPAEFDLSLFETVSSKFYTKDEKNPYDFTIQYRKRKEVLE	soluble
MKHSVHFGAGNIGRGFIGEILFKNGFHIDFVDVNNQIIHALNEKGKYEIEIAQKGQSRIEVTNVAGINSKEHPEQVIEAIQKTDIITTAIGPNILPFIAELLAKGIEARRVAGNTQALDVMACENMIGGSQFLYQEVKKYLSPEGLTFADNYIGFPNAAVDRIVPAQSHEDSLFVVVEPFNEWVVETKRLKNPDLRLKDVHYEED	not soluble
MKIAAIYTQSVGPLPDGEIRFENDWSGEIESNVLITGPNGCGKSTLLRAISLLWRAFGHWLGTGTRLNIKDESYTWFYRWDASCAMILDSFSPKSEDQIGLFLGSEAFLVQLKEKYPQVYWLGETVSRTKGTTPETTVFTSSEHFFLPYKNWWSHWSSQYQRLVLKGPSVDMPNLVYLDAEARRWVRPQKDIGSLSPDDSTQAWLATYEVNDNWKGQLESSLFNMKATMPGEYPEMIATLNQFFSGKRIEAEIHPGQRQRVLLDSGNDHSLDALSSGEHQVLIMLFTVQRWLQPGGVVLIDEPDLHLHPSLISPLLASIENIVARKNGQLVMTSHATDIWQRYDNMGLRIDLTDGKDAENGQR	not soluble
MKIAVVGAGLTGLKTAKELAEHAKVVVFEPDDVGGLVATFREFSIEKFYHHCFRDDAFLLEEIKRCGLKSKLVWKIAKTGFAANGKIYPLNTPFEILRYPLLTFGEKIRLARFTLKSRKLNYEDFDDVGVSEGIREELGEGLLERFFMPLLRSKFGENAEKVSYAWLLGRVAIRSNRKYSGEEIGYIRHGFQQLVDKMAEGLEIRRERARIRKNARWDVNGEDFDAVVYTAPLSELGELAEKLGIPEVRYQSSVCALIGAEETLTENIYWTNIADKMSFGAVIEHTNFMPFEDYGIHLMYLAAYSTPDGWLFNLSDKEIEKLFLSDLRKLGFKTESVRFVRVFKAKYSGPIYEKGYRRKITPYRVAEGFYVAGMTSRPNYPERSMNGSIRAGKEVAEQVKEDLLLEHHHHHH	soluble
MKIDYVSDLHINHWIPWNVNQIKWEKRTREIVNRLISNGNGEVLVIAGDFTEWNQQTLWVLDEAAKQYEKVYFTYGNHDLYLLSKSQKRKYSDSLGRLNDLIQKAADMKNVTPLIKTTETYKGKVFAGDVMWYLPKGIEGWDFFKGVSNDSNYIWLNGYNKVDGVRAMWKESMDWYETLENTQVDVFVSHVPPVHNPYSPFEPNTCYMVDVPFINAKHWVCGHDHLQAEFDKDGTSFHMNCIGYPYDYDNYPSVNVIPGEEVDSYKTFELKTFEIMAGDPLEHHHHHH	not soluble
MKIEFFHDVICSFCFPMSDRMHEIQQEFPEIELIHRSFALGWSANDFETMFGSRAAVKEEVLTHWVHANQNDSKHRFNIEGMRKQRFDFPTSKNVLLAAKAAGYIGNQDTYWLLFDKLQEGLFVRSLNIEEPEVIEKLVKETTIDFALWKEAVASEAVWTAVQEDFALASAYGLQGVPALIINQKYLINGAVPKQQISQTIQKILAEEKQQQPLVSLTPSSEESASCEFKEGTWTCH	not soluble
MKIFLDSAITTDIQDRLATEIIDGVTTNPTLIKKSNEDPDVVYKELYDMRVKDISIEVRGDTAQELAANGILYGRKYGEVATIKLPCTVEGIKACKKLSILGHKTNMTLVFSVSQAILCAKAGATYVSPFVGRLDQIGEDGIQLIRDISRVYCVSGVKTQILAASIRSPKQAEDAYLAGADICTLPVKVFDQMFKHTLTDDGLKQFAIDFGINF	not soluble
MKIFNNVHCRIRNTISCSNYIFSAVWNFLISVFINKTNFNNSVYCRIFKVSIGLRKSISSTTRTRWVPVVFICSRSTNRWTGARSVNPIRNLIYIKLSILNKVRPIFRLEHHHHHH	not soluble
MKIGIVGATGYGGTELVRILSHHPHAEECILYSSSGEGNVYSEGYPHLTGLADQQLKPIDMNTIKHEIDIMFLAAPPGVSSELTPKLADAGITVIDLSGDLRIKEPAEYEKWYKRTAAPKAVIQEAVYGLAELNQLQIQQAKLIANPGCFPTAVLLGLAPLAQKKLLDESFVIVDAKTGVSGAGRKASMGTHFSELNDNFKIYKVNEHQHTPEIEQALNEWQPGLGPITFSAHLVPMTRGIMATMYTRLTCDLTADDLHDLYSEFYQDSYFVRVRPKGQYPQTKEVYGSNFCDIAVTLDERTNRVTIVSVIDNLMKGAAGQAVQNFNLMNGWNEETGLTIITPIYP	not soluble
MKIGVFDSGVGGFSVLKSLLKARLFDEIIYYGDSARVPYGTKDPTTIKQFGLEALDFFKPHEIELLIVACNTASALALEEMQKYSKIPIVGVIEPSILAIKRQVEDKNAPILVLGTKATIQSNAYDNALKQQGYLNISHLATSLFVPLIEESILEGELLETCMHYYFTPLEILPEVIILGCTHFPLIAQKIEGYFMGHFALPTPPLLIHSGDAIVEYLQQKYALKNNACTFPKVEFHASGDVIWLERQAKEWLKL	soluble
